Our source for the t1/2 of fluorescence recovery (FRAP) in nascent, peripheral adhesions, cells plated for 30 minutes on FN values is patent US20150079113A1.

This experiment has as its target α5 integrin (endogenous) (mouse) (UniProt P11688). The experiment can be described thus: cell-based or functional assay.

Chain of α5 integrin (endogenous) (mouse) (P11688 45-1053): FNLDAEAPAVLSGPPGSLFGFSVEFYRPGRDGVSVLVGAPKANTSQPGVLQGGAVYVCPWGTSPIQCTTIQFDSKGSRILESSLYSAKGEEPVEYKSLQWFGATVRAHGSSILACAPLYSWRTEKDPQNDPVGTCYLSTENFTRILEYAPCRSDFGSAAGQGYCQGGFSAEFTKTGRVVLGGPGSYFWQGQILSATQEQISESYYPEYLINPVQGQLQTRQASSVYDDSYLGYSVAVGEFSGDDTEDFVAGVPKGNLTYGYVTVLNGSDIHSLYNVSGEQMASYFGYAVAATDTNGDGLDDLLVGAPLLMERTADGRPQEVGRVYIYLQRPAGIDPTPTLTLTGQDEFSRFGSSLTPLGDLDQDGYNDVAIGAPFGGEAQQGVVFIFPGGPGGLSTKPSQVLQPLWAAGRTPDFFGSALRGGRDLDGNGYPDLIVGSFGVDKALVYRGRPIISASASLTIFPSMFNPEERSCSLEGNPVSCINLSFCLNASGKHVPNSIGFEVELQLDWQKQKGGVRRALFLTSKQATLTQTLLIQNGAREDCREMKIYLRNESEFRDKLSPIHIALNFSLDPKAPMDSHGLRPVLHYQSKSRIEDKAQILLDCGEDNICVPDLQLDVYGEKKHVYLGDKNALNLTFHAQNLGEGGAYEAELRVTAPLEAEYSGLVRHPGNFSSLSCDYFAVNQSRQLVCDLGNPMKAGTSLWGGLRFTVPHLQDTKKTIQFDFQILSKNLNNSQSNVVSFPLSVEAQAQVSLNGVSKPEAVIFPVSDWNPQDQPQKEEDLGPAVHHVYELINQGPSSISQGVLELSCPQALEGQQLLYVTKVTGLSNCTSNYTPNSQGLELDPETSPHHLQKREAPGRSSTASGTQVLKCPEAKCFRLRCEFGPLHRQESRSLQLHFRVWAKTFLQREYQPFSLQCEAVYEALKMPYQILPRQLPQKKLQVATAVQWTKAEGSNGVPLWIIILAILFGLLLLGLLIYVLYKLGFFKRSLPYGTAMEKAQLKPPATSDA

As to GFP-Mena (from UniProt Q03173 1-802), the t1/2 of fluorescence recovery (FRAP) in nascent, peripheral adhesions, cells plated for 30 minutes on FN turned out to be 18.9 s.
